A word on the Kd: it is the free concentration of one partner at which half of the binding sites on the other are occupied at equilibrium, for simple one-to-one binding.

This is an account of results in US20170260241A1.

The target of this experiment is recombinant TLR4 protein. The experiment is described as follows: ELISA: TLR4 coated on the plate, MD2 titrated from 133.3 to 0.065 nM, anti-MD2 detection, nonlinear regression. For orientation: ELISA stands for enzyme-linked immunosorbent assay.

As to recombinant MD2 protein (ligand), the Kd came out at 18.4 nM.
